One experiment concerns the target T1, GST-CDF2 (Arabidopsis, UniProt Q93ZL5 1-457).
T1 construct: cycling DOF factor 2 (CDF2), Arabidopsis
T1 sequence (looked up): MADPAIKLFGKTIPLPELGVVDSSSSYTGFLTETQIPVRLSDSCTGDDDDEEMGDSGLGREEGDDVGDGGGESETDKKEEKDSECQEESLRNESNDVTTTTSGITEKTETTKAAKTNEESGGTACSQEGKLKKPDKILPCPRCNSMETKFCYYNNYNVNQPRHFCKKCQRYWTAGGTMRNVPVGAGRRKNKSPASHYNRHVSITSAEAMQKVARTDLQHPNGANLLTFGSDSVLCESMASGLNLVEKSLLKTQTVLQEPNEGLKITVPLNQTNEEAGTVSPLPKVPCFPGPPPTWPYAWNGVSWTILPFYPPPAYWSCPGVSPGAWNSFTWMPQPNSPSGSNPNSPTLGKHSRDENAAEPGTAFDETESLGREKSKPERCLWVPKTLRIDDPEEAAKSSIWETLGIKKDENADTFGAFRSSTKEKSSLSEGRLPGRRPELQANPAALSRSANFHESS
The experiment can be described thus: pull-down; GST pull-down: GST-CDF2 (or GST) on glutathione beads, MBP-DCL1-RBD added; 40 mM HEPES-KOH pH 7.5, 10 mM KCl, 3 mM MgCl2, 0.4 M sucrose, 1 mM EDTA, 1 mM DTT, 0.2% Triton X-100; 4 C, 1 h; immunoblot. The note with it: both partners purified.

A further experiment addresses T2, MBP-CDF2 (Arabidopsis, UniProt Q93ZL5 1-457).
T2 construct: cycling DOF factor 2 (CDF2), Arabidopsis; source: E. coli BL21 (DE3), purified (New England Biolabs protocol)
T2 sequence (looked up): T1 sequence (looked up)
The experiment can be described thus: pull-down; MBP pull-down: MBP-CDF2 (or MBP) on amylose resin, GST-DCL1-RBD added; 40 mM HEPES-KOH pH 7.5, 10 mM KCl, 3 mM MgCl2, 0.4 M sucrose, 1 mM EDTA, 1 mM DTT, 0.2% Triton X-100; 4 C, 1 h; immunoblot. The note with it: both partners purified.

B1: MBP-DCL1-RBD (domain or fragment, Arabidopsis, UniProt Q9SP32 1733-1909, looked up)
chain: HPVRELQERCQQQAEGLEYKASRSGNTATVEVFIDGVQVGVAQNPQKKMAQKLAARNALAALKEKEIAESKEKHINNGNAGEDQGENENGNKKNGHQPFTRQTLNDICLRKNWPMPSYRCVKEGGPAHAKRFTFGVRVNTSDRGWTDECIGEPMPSVKKAKDSAAVLLLELLNKTFS
notes: Dicer-like 1 (DCL1), Arabidopsis, the two C-terminal dsRBDs (DCL1-RBD, defined as aa 1733-1910); The limits are those printed where the name DCL1-RBD is defined; the methods of the pull-down give none; source: E. coli BL21 (DE3), purified (New England Biolabs protocol)
Take B1: the binding result with GST-CDF2 is given as “binds”.

B2: GST-DCL1-RBD (domain or fragment, Arabidopsis, UniProt Q9SP32 1733-1909, looked up)
chain: B1 chain
notes: Dicer-like 1 (DCL1), Arabidopsis, the two C-terminal dsRBDs (DCL1-RBD, defined as aa 1733-1910); The limits are those printed where the name DCL1-RBD is defined; the methods of the pull-down give none
Turning to B2, the binding result with MBP-CDF2 was “binds”.

Source of the values: PMC4608766, “The Roles of Arabidopsis CDF2 in Transcriptional and Posttranscriptional Regulation of Primary MicroRNAs” (PLoS Genetics, 2015).
